Experimental data: the nanobody polyreactivity screen of Harvey et al. (2022)

test: yeast display, Sf9 membrane polyspecificity reagent, FACS + sequencing; frameworks hold sequencing errors
Outline: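 In a synthetic yeast display library (Saccharomyces cerevisiae BJ5465), nanobody expression was induced with galactose for 36–48 hours. FACS gates were set low and high (top ~1%) using anti-HA fluorescence for expression and streptavidin fluorescence for binding of the Sf9 membrane reagent. Each polyreactivity label is drawn from the gate of origin.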

| Sequence | polyreactivity (PSR sort gate) |
| --- | --- |
| HVQLVESGGGLVQAGGSLRLSCAASGSIFVSYGMGWYRQAPGKEWELVASISNSAGSTYYADSVKGRFTISRDNAQNTVYLQMNSLKPDDTAVYSCAADYWVWAYGGYDAYNYWGQGTQVTVSS | high polyreactivity |
| HVQLVESGGGLVQAGGSLRLSCAASGSILDGKALGWYRQAPGKERERVAGISESDGSTNYADSVKGRFTISRDNAKNTVYLQMNSLKPEDTAVSYCAADIWTSGDIPYDYWGQGTQVTVSS | low polyreactivity |
| HVQLVESGGGLVQAGGSLRLSCAASGSTFSYYAMGWYRQAPGKERELVAAITSGGRTKYADSVKGRFTISRDNAKNTVYLQMNSLKPEDTAVYYCAKRIEKFSGSLAGRWYDYWGQGTQVTVSS | high polyreactivity |
| HVQLVESGGGLVQAGGSLRLSCAASGSTFTVNAMGWYRQAPGKERELVAAISASGGRTYYADSVKGRFTISRDNAKNTVYLQMNSLKPEDTAVYYCAARFRTWGNREAGYYWGQGTQVTVSS | high polyreactivity |
| HVQLVESGGGLVQAGGSLRLSCAASGSTFYNYAMGWYRQAPGNERELVAGISSGVTTNYADSVKGRYTISRDNAKNTVYLQMNSLKPEDTAVYYCAAVHSWYARYLGGEDYDYWGQGTQVTVSS | low polyreactivity |
| HVQLVESGGGLVQAGGSLRLSCAASGYTFWDYAMGWYRQAPGKEREFVAGISFSDGGTYYADSVKGRFTISRDNAKNTVYLQMNSLKPEDTAVYYCAATYPYSWVYSGYYYWGQGTQVTVSS | low polyreactivity |
| HVQLVESGGGLVQAGGSLRLSCAASVITFVPYAMGWYRQATGKERELVAAISWSGGSTYYADSVKGRFTISRDNAKNTVYLQMNSLKPEDTAVYYCAAQHDVRYDYWGQGTQVTVSS | low polyreactivity |
| HVQLVESGGGLVQAGGSLRLSCASSGSIFWANAMGWYRQAPGKERELVATITSGGRTYYADSVKGRFTISRDNAKNTVYLQMNSLKPEDTAVYYCARVPPQYRWGRRLVYVHVDYWGQGTQVTVSS | low polyreactivity |
| HVQLVESGGGLVQAGGSLRVSCAASGRTFWSYTMGWYRQAPGKERELVASITYRGGSTYYADSVKGRFTISRDNAKNTVYLQMNSQKPEDTAVYYCNARYKRYSYDYWGQGTQVTVTS | high polyreactivity |
| HVQLVESGGGLVQAGGSRLLSCAASGFTIYANAMGWYSQAPGKERELVAAITWRGGSTYYADSVKVRFTISRDNAKNTVYLQMNSLKPADTAVYYCNALKGRPVRSYLASPSYRYEYWGQGTQVTVSS | high polyreactivity |
| HVQLVESGGRLVQAGGSLRLSCAASGIIFGYYAMGWYRQAPGNERELVAAIDWTGGNTYYADSVKGRFRISRDIAKNTVYLQMNSLKPEDTAVYYCAADYYSQEDYWGQGTQVTVSS | low polyreactivity |
| HVQLVESGGRLVQAGGSLRLSCAASGSIFVPNAMGWYRQAPGKERELVATISWSGGSTYADCVKGRFTISRDNAKNTVYLQMKSLKPEDTAVYYCNARRYDPGSRYDYWGQGTQVTVSS | low polyreactivity |
| HVQPQESGGGLVQAGGSLRLSCAASGTISADYKMGWYRQAPGKEREFVAANAFGAFTNYADSVKGRFTISRDIAKNTVYLQMNSLKPEDTAVYYCAADLYYYAYDYWGQGTQVTVSS | high polyreactivity |
| KCQLVDSGGGLVQAGGSLRLSCAASGSIFYVKAMGWYRQAPGKEREFVADITYTGGSTYYADSVNGRFTISRDNAKNTVYLQMNSLKPEDTAVYYCAADLYTTYVAIYDYWGQGTQVTVSS | low polyreactivity |
| KVQLGVSGGGLVQAGGSLRLSCASSGFIFRYYAMGWSRQAPGKERELVAGISSGGSTYYADSVKGRFTISRDNAKNTVYLKMNSLKPEDTAVYYCNAVYSSGVDGSEGFDYWGQGTQVTVSS | low polyreactivity |
| KVQLLYSAGGLVHAGGSLRLSCAASGNIFRSYAMGWYRQAPGKERELVAAISSRGGSTYYADTVKVRFTISRDNAMNTVYLQMNSLKPEDTAVYYCNAPSTQQGPKYDYWGQGTQVTVSS | low polyreactivity |
| KVQLQESDGALVQAGGSLRLSCAASGSISPQYYMGWYRQAPGKEREFVAISKGTTTYYADSVKGRLTISRVNAKNTVYLQMNSLKPEDTAVYCCAAGRWLQKVPAYWDQGTQVTVSS | low polyreactivity |
